For orientation: stoichiometry N means the number of molecules, sites or subunits per partner or assembly.

Assay [1] deals with His6-PA: WT PA with a carboxy-terminal six histidine tag, 63-kDa form (Bacillus anthracis). Briefly: negative-stain electron microscopy.
The target of assay [2] is Protective antigen (PA), wild type, 63-kDa portion of trypsin-nicked PA (Bacillus anthracis). Put plainly: native MS.
Assay [3] shares this target. Briefly: negative-stain electron microscopy.

Where “and” joins values, the source holds several entries; their conditions need not be identical. Equal entries are not always repeated.

Sequence of Protective antigen (PA), wild type, 63-kDa portion of trypsin-nicked PA (Bacillus anthracis) (P13423 197-764 limits assumed): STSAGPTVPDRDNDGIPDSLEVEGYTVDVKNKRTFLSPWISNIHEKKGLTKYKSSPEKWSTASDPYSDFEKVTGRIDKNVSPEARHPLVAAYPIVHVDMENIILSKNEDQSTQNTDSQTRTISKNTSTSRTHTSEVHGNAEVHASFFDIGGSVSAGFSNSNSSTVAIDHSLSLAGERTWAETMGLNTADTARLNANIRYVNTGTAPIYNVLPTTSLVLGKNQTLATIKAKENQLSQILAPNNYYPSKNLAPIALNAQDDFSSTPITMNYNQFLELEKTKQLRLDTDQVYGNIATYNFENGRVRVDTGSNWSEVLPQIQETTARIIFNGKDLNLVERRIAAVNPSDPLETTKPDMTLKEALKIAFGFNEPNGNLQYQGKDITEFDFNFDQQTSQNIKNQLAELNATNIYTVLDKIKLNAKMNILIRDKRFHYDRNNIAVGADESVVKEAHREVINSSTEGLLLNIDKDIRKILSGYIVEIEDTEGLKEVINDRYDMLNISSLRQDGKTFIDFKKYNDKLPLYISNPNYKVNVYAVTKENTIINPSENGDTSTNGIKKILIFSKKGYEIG

In assay [1], “His6-PA: WT PA with a carboxy-terminal six histidine tag, 63-kDa form (domain or fragment)” showed a percent of oligomers that are heptamers of 74% and a percent of oligomers that are octamers of 26%.

Turning to “LFN, amino-terminal domain of lethal factor (LF residues 1-263) (domain or fragment)”, in assay [2], the stoichiometry N (LFN per PA heptamer) came out at 2 and the stoichiometry N (LFN per PA tetramer) is 2.

Take “Protective antigen (PA), wild type, 63-kDa portion of trypsin-nicked PA (domain or fragment)”: the stoichiometry N in assay [3] was 7 and 8.

For the origin of these results see publication PMC2742380.
